From patent US20230192897A1 (NUMAB THERAPEUTICS, published 2023)

Legend:
Fc tagged human PDL1 = biological target: T1, Fc tagged human PDL1 (human, UniProt Q9NZQ7 19-239); assay: SPR
T1 construct: Bought (Sino Biological, cat. 10084-H02H); captured on the SPR chip; also called PDL1-Fc chimeric protein
Method in brief: (§1)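 Kinetics were fitted with a one-to-one Langmuir model to give apparent ka, kd and KD. Binders at 0.12-90 nM (three-fold series) flowed 3 min, with 10 min dissociation and 3 M MgCl₂ regeneration, on a Biacore T200.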

[1] = biological target: cynomolgus CD137-Fc chimeric protein (cynomolgus monkey, UniProt A9YYE7 24-186); assay: SPR
Method in brief: as §1

[2] = biological target: T2, mouse CD137-Fc chimeric protein (mouse, UniProt P20334 24-187, limits assumed); assay: SPR
T2 sequence (looked up): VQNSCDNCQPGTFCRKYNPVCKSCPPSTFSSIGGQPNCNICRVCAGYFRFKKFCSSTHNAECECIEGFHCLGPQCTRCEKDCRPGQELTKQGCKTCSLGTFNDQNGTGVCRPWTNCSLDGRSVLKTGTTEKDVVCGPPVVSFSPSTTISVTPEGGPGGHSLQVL
Method in brief: as §1

Fc tagged human CD137 = biological target: T3, Fc tagged human CD137 (human, UniProt Q07011 24-186); assay: SPR
T3 construct: also called CD137-Fc chimeric protein
Method in brief: as §1

human PDL1 on cells [3] = biological target: T4, human PDL1 on cells (human, UniProt Q9NZQ7 19-290); assay: cell-based or functional assay
[4] = biological target: T5, CD137 on Jurkat NFkB reporter cells (human, UniProt Q07011 24-255); assay: cell-based or functional assay
[5] = biological target: T5, CD137 on Jurkat NFkB reporter cells; assay: cell-based or functional assay; remark: listed apart in the source
[6] = biological target: T5, CD137 on Jurkat NFkB reporter cells; assay: cell-based or functional assay; remark: listed apart in the source
[7] = biological target: T5, CD137 on Jurkat NFkB reporter cells; assay: cell-based or functional assay; remark: listed apart in the source
biotinylated human PDL1 [8] = biological target: T6, biotinylated human PDL1 (human, UniProt Q9NZQ7 19-238, limits assumed, biotinylated); assay: competition ELISA B7.1/PDL1
T6 construct: also called biotinylated PDL1
Method in brief: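 IC₅₀ was derived by four-parameter logistic fitting of reference-subtracted A450/690 readings. The signal came from streptavidin-polyHRP40 (10 ng/ml) with a 6-minute TMB reaction detecting biotinylated PDL1 bound to the plate. Pre-mixed samples sat 1 h at RT before a 1.5 h plate incubation.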

biotinylated human PDL1 [9] = biological target: T6, biotinylated human PDL1; assay: competition ELISA PD-1/PDL1
human serum albumin = biological target: T7, human serum albumin (human, UniProt P02768 25-609); assay: SPR, SA coupled to chip, pH 5.5
T7 construct: Coupled directly to the CM5 chip; also called HSA; human SA
Experimental: (§2) Affinity of molecules to serum albumin (SA) of the different species was determined by SPR measurements using a Biacore T200 device (GE Healthcare). SA was directly coupled to a CM5 sensor chip (GE Healthcare) using amine coupling chemistry. […] The assay was run in a 1× PBS-Tween buffer at pH 5.5.

mouse serum albumin [10] = biological target: T8, mouse serum albumin (mouse, UniProt P07724 25-608); assay: SPR, SA coupled to chip, pH 5.5
T8 construct: Coupled directly to the CM5 chip; also called MSA; mouse SA
Experimental: as §2

biotinylated human PDL1 [11] = biological target: T6, biotinylated human PDL1; assay: competition ELISA PD-1/PDL1 with HSA
Experimental: (§3) Plates were blocked for 1 hour at room temperature by adding 300 μl of PBS with i%BSA and 0.2% tween (dilution buffer) to each well. Inhibitors were serially diluted in 3-fold steps to final concentrations ranging from 300 to 0.005 ng/ml in dilution buffer containing 1 ng/ml biotinylated human PDL1. The mixtures were pre-incubated for 1 hour at room temperature under gentle agitation on a rotating mixer (21 rpm) and added to the microplates after 3 wash cycles with 450 μl wash buffer per well. Plates were incubated for 1.5 hours at room temperature under gentle agitation, then 10 ng/ml streptavidin-polyHRP40 was added to each microplate well after three washes with 450 μl of wash buffer per well. After 1 h incubation at RT, plates were washed three times with 450 μl wash buffer and TMB substrate solution was added. The enzymatic reaction was stopped after 6 minutes by addition of 1 M HCl and absorbance was measured at 450 nm using 690 nm as a reference wavelength. For calculation of IC₅₀ values, a four-parameter logistic (4PL) curve fit was performed in Graph Pad Prism using reference subtracted values.

biotinylated human PDL1 [12] = biological target: T6, biotinylated human PDL1; assay: PD-1/PDL1 competition ELISA with 1 mg/ml HSA: coated human PD-1, biotinylated human PDL1; blocked ligand: human PD-1
Experimental: as §3

human PDL1 on cells [13] = biological target: T4, human PDL1 on cells; assay: cell-based or functional assay; remark: listed apart in the source
[14] = biological target: T5, CD137 on Jurkat NFkB reporter cells; assay: cell-based or functional assay; remark: listed apart in the source
[15] = biological target: T5, CD137 on Jurkat NFkB reporter cells; assay: cell-based or functional assay; remark: listed apart in the source
[16] = biological target: T5, CD137 on Jurkat NFkB reporter cells; assay: cell-based or functional assay; remark: listed apart in the source
mouse serum albumin [17] = biological target: T8, mouse serum albumin; assay: SPR, SA coupled to chip
Experimental: as §2

B1: PRO1057 (other)
chain: DIQMTQSPSSLSASVGDRVTITCQASQSINDYLAWYQQKPGKAPKLLIYKASTLASGVPSRFSGSGSGTDFTLTISSLQPEDFATYYCQQGYIITDIDNVFGTGTKVTVLGGGGGSQVQLQESGPGLVKPSETLSLTCKVSGFSFSNSYWICWIRQPPGKGLEWIGCTFVGSSDSTYYANWAKGRVTISVDSSKNQFSLKLSSVTAADTAVYYCARHPSDAVYGYANNLWGQGTLVTVSSGGGGSGGGGSGGGGSGGGGSIQMTQSPSSLSASVGDRVTITCQASQSINNVLAWYQQKPGKAPKLLIYRASTLASGVPSRFSGSGSGTDFTLTISSLQPEDFATYYCQSSYGNYGDFGTGTKVTVLGGGGGSQVQLQESGPGLVKPSETLSLTCKVSGFSFSSGYDMCWIRQPPGKGLEWIGCVVAGSVDITYYASWAKGRVTISVDSSKNQFSLKLSSVTAADTAVYYCARKDAYSDAFNLWGQGTLVTVSSGGGGSGGGGSVVMTQSPSSLSASVGDRVTITCQASQIISSRSAWYQQKPGQPPKLLIYQASKLASGVPSRFSGSGSGTDFTLTISSLQPEDFATYYCQCTYIDSNFGAFGGGTKLTVLGGGGGSGGGGSGGGGSGGGGSEVQLVESGGGLVQPGGSLRLSCAASGFSFSSSYWICWVRQAPGKGLEWVGCVFTGDGTTYYASWAKGRFTISRDNSKNTVYLQMNSLRAEDTATYFCARPVSVYYYGMDLWGQGTLVTVSS
notes: trispecific scDb-scFv; also called 38-02-A04 sc01 scDb-i/33-03-G02 sc01 scDb-o/23-12-A01-sc03, sk17sh4
Fc tagged human PDL1
  Kd: 0.11 nM
  koff: 0.00017 s⁻¹
[1]
  Kd: 4.8 nM
[2]
  Kd: 1200 nM
Fc tagged human CD137
  Kd: 5.15 nM
  koff: 0.0007 s⁻¹
  kon: 240000 M⁻¹ s⁻¹
Human PDL1 on cells [3]
  IC50 (ng/ml), NF-AT potency assay, +HSA: 665 ng/mL
  rel. IC50 (avelumab/test), +HSA: 0.1 fold
[4]
  EC50, NFkB reporter, CHO-PDL1, 6 h, +HSA: 0.112 µg/mL
[5]
  EC50, NFkB reporter, CHO-PDL1, 24 h, +HSA: 0.792 µg/mL
[6]
  EC50, NFkB reporter, HCC827 with IFNg, 24 h, +HSA: 0.115 µg/mL
  EC50, NFkB reporter, HCC827 without IFNg, 24 h, +HSA: 0.0766 µg/mL
[7]
  IC50 (ng/ml), NFkB reporter, CHO-PD-L1, 24 h, +HSA: 792 ng/mL
  IC50 (ng/ml), NFkB reporter, HCC827 + IFNg, 24 h, +HSA: 115 ng/mL
  IC50 (ng/ml), NFkB reporter, HCC827 - IFNg, 24 h, +HSA: 76.6 ng/mL
  max. activation (%), NFkB reporter, CHO-PD-L1, 24 h, +HSA: 663%
  rel. IC50 (urelumab/test), NFkB reporter, CHO-PD-L1, 24 h, +HSA: 0.1 fold
  rel. IC50 (urelumab/test), NFkB reporter, HCC827 + IFNg, 24 h, +HSA: 0.46 fold
  rel. IC50 (urelumab/test), NFkB reporter, HCC827 - IFNg, 24 h, +HSA: 0.62 fold
Biotinylated human PDL1 [8]
  IC50: 0.0163 µg/mL
  rel. IC50 (IC50 avelumab/IC50 test): 0.53 fold
Biotinylated human PDL1 [9]
  IC50: 0.00861 µg/mL
  rel. IC50 (IC50 avelumab/IC50 test): 0.2 fold
Human serum albumin
  koff: 0.00067 s⁻¹
  kon: 240000 M⁻¹ s⁻¹
Mouse serum albumin [10]
  kon: 130000 M⁻¹ s⁻¹
Biotinylated human PDL1 [11]
  fold change of IC50 in presence of human serum albumin: ~2 fold
Biotinylated human PDL1 [12]
  IC50 (read off the curve): ~0.02 µg/mL

B2: PRO1126 (bispecific antibody)
chain: DFQLTQSPSSLSASVGDRVTITCQASQSINDYLAWYQQKPGKSPKLLIYKASTLASGVPSRFSGSGSGTDFTLTISSLQPEDFATYYCQQGYIITDIDNVFGTGTKVTVLGGGGGSQVQLQESGPGLVKPSETLSLTCKVSGFSFSNSYWICWIRQPPGKGLEWIGCTFVGSSDSTYYANWAKGRVTISVDSSKNQFSLKLSSVTAADTAVYYCARHPSDAVYGYANNLWGQGTLVTVSSGGGGSGGGGSGGGGSGGGGSIQMTQSPSSLSASVGDRVTITCQASQSINNVLAWYQQKPGKAPKLLIYRASTLASGVPSRFSGSGSGTDFTLTISSLQPEDFATYYCQSSYGNYGDFGTGTKVTVLGGGGGSQSQLQESGPGLVKPSETLSLTCKASGFSFSSGYDMCWVRQPPGKGLEWIACVVAGSVDITYYASWAKGRVTISKDSSKNQVSLKLSSVTAADTAVYFCARKDAYSDAFNLWGQGTLVTVSS
notes: scDb; also called 38-02-A04 sc01 scDb-i/33-03-G02 sc03 Full scDb-o
Fc tagged human PDL1
  Kd: ≤ 0.0035 nM
  fold improvement in affinity against PRO885 (CDR graft): 20 fold
  koff: < 1e-05 s⁻¹
[2]
  binding result: no binding
Fc tagged human CD137
  Kd: 3.5 nM
  koff: 0.00075 s⁻¹
  kon: 210000 M⁻¹ s⁻¹
Human PDL1 on cells [13]
  IC50, NFAT reporter gene assay: 0.0481 µg/mL
[14]
  EC50, NFkB reporter, CHO-PDL1: 0.006 µg/mL
  Top of curve fit, NFkB reporter, CHO-PDL1: 242
[15]
  EC50, NFkB reporter, HCC827 without IFNg: 0.00697 µg/mL
  Top of curve fit, NFkB reporter, HCC827 without IFNg: 135
[16]
  EC50, NFkB reporter, HCC827 with IFNg: 0.00548 µg/mL
  Top of curve fit, NFkB reporter, HCC827 with IFNg: 208
[7]
  IC50 (ng/ml), NFkB reporter, CHO-PD-L1: 6 ng/mL
  IC50 (ng/ml), NFkB reporter, HCC827 + IFNg: 5.48 ng/mL
  IC50 (ng/ml), NFkB reporter, HCC827 - IFNg: 6.97 ng/mL
  max. activation (%), NFkB reporter, CHO-PD-L1: 242%
  max. activation (%), NFkB reporter, HCC827 + IFNg: 208%
  max. activation (%), NFkB reporter, HCC827 - IFNg: 135%
  rel. IC50 (urelumab/test), NFkB reporter, CHO-PD-L1: 14.4 fold
  rel. IC50 (urelumab/test), NFkB reporter, HCC827 + IFNg: 19.7 fold
  rel. IC50 (urelumab/test), NFkB reporter, HCC827 - IFNg: 16 fold
Biotinylated human PDL1 [9]
  IC50: 0.00128 µg/mL
  rel. IC50 (IC50 avelumab/IC50 test): 1.59 fold

B3: PRO963 (other)
chain: DIQMTQSPSSLSASVGDRVTITCQASQSINDYLAWYQQKPGKAPKLLIYKASTLASGVPSRFSGSGSGTDFTLTISSLQPEDFATYYCQQGYIITDIDNVFGTGTKVTVLGGGGGSQVQLQESGPGLVKPSETLSLTCKVSGFSFSNSYWICWIRQPPGKGLEWIGCTFVGSSDSTYYANWAKGRVTISVDSSKNQFSLKLSSVTAADTAVYYCARHPSDAVYGYANNLWGQGTLVTVSSGGGGSGGGGSGGGGSGGGGSIQMTQSPSSLSASVGDRVTITCQASQSINNVLAWYQQKPGKAPKLLIYRASTLASGVPSRFSGSGSGTDFTLTISSLQPEDFATYYCQSSYGNYGDFGTGTKVTVLGGGGGSQVQLQESGPGLVKPSETLSLTCKVSGFSFSSGYDMCWIRQPPGKGLEWIGCVVAGSVDITYYASWAKGRVTISVDSSKNQFSLKLSSVTAADTAVYYCARKDAYSDAFNLWGQGTLVTVSSGGGGSGGGGSIQMTQSPSSLSASVGDRVTITCQSSESVYSNNQLSWYQQKPGQPPKLLIYDASDLASGVPSRFSGSGSGTDFTLTISSLQPEDFATYYCAGGFSSSSDTAFGGGTKLTVLGGGGGSGGGGSGGGGSGGGGSEVQLVESGGGLVQPGGSLRLSCAASGFSLSSNAMGWVRQAPGKGLEYIGIISVGGFTYYASWAKGRFTISRDNSKNTVYLQMNSLRAEDTATYFCARDRHGGDSSGAFYLWGQGTLVTVSS
notes: trispecific scDb-scFv anti-PDL1 x CD137 x HSA; also called PRO1051; 38-02-A04 sc01 scDb-i/33-03-G02 sc01 scDb-o/19-01-H04-sc03 scFv
Fc tagged human PDL1
  Kd: 0.0066 nM
  kon: 2e+06 M⁻¹ s⁻¹
Fc tagged human CD137
  Kd: 3 nM
  koff: 0.00062 s⁻¹
  kon: 200000 M⁻¹ s⁻¹
Human PDL1 on cells [3]
  IC50 (ng/ml), NF-AT potency assay, +HSA: 275 ng/mL
  rel. IC50 (avelumab/test), +HSA: 0.25 fold
[7]
  max. activation (%), NFkB reporter, CHO-PD-L1, 24 h, +HSA: 369%
Mouse serum albumin [17]
  binding result: no binding
Human serum albumin
  koff: 0.0003 s⁻¹
